15 molecules from patent publication US20200376136A1 (Regeneron, published 2020) can be followed below.

Changes are numbered by the printed parent chain.

B1: H1H11880P (antibody, human IgG1, V domains shown)
VH: EVQLVESGGGLVQPGGSLRLSCAASGFTFSTYAMHWVRQAPGKGLQHVSTISTNGVNTYYADSVKGRFTISRDNSKSTLYLQMGSLRAEDMAVYYCARDKDFWSGYFDYWGQGTLVTVSS
VL: EIVMTQSPGTLSVSPGERATLSCRASQSVSSNLAWYHQKPGQAPRLLIYGASTRATGFPARFSGSGSGTEFTLTISSLQSEDFAAYYCQQYNNWPITFGQGTRLEIK
B2: H1H11162N (antibody, human IgG1, V domains shown)
VH: QVQLQQSGPGLVKPSQTLSLTCAISGDSVSSNRAAWNWIRQSPSRGLQWLGRTYYRSKWYNDYAVSLRSRITINPVTSKNQVALHMNSVTPEDTAVYYCARAGIVVVPGPETFYYYDHGLDVWGQGTTVTVSS
VL: DIQMTQSPSSLSASVGDRVTITCRASQSIRSYLNWYQQKPGKAPELLIHAASSLQSGVPSRFSGSGSGTDFTLTISSLQPEDFASYYCQQSYSAPPITFGQGTRLEIK
B3: H1H11164N (antibody, human IgG1, V domains shown)
VH: B2 VH with A23V, S31T, R33S, Q48E, L67V, M86L, F113Y, D117Y
VL: B2 VL with S28N, E45K, A50V, S85T, A94T, Q101H
B4: H1H11893P2 (antibody, human IgG1, V domains shown)
VH: QVQLVQSGAEVKKPGASVKVSCKVSGYTLTELSMHWVRQAPGKGLEWMGSFDPEDDETIYAQKFQGRVTMTEDTSTDTAYMDLSSLRSEDTAVYYCSIEEVRWRGSDYYYVMDVWGQGTTVTVSS
VL: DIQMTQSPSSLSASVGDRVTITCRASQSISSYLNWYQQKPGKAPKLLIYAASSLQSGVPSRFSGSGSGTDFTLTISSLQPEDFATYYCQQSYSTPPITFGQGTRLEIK
B5: H1H11163N (antibody, human IgG1, V domains shown)
VH: QVQLQQSGPGLVKPSQALSLTCAISGDSVSSNSAAWNWIRQSPSRGLEWLGRTYYRSKWYNDYAVSVKSRITINPDTSKNHFSLHLNSMTPEDTAVYYCARARIVVVPGPEVYYYYYYDMDVWGQGTTVTVSS
VL: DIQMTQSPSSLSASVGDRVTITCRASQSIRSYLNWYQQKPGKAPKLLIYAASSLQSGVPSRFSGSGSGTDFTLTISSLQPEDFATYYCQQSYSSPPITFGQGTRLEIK
B6: H1H11888P2 (antibody, human IgG1, V domains shown)
VH: QVQLQESGPGLVKPSQTLSLTCTVSGYSINSGGHFWSWIRQHPGKGLEWIGDIYYSGNTYSIPSLKRRISMSVDTSKNHFSLKLISVTAADTAIYYCARNSGGYLDAFDIWGQGTMVTVSS
VL: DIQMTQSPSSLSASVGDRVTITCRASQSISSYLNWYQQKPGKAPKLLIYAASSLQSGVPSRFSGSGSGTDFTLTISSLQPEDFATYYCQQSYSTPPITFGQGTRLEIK
B7: H1H7809N (antibody, human IgG1, V domains shown)
VH: QVQLVESGGGVVQPGRSLGLSCAASGFTFSSYGMHWVRQAPGKGLEWVAVIWYDGSNKYYVDSVKGRFTISRDNSKNTLYLQMNSLRAEDTAVYYCAREGLRFLENYYYYYGMDVWGQGTTVTVSS
VL: EIVLTQSPGTLSLSPGERATLSCRASQSISSTYLAWYQQRPGQAPRLLIYGASSRATGIPDRFSGSGSGTDFTLTISRLEPEDFAVYYCQQYGTSPYTFGQGTKLEIK
B8: H1H7972P (antibody, human IgG1, V domains shown)
VH: QVQLQQSGPGLVKPSQTLSLTCAISGDSVSSNSAAWNWIRQSPSRGLEWLGRTYYRSKWYNDYVVSVKSRIIFNPDTSKNQFSLQLNSVTPEDTAVYYCARVRQDYRSGPFDYWGQGTLVTVSS
VL: EIVMTQSPVTLSVSPGERATLSCWASQSVSSSLAWYQQKPGQAPRLLIYGASTRATGIPARFSGSGSGTGFTLTISSLQSEDFAVYYCQQYNNWPFTFGPGTKVDIK
B9: H1H11878P (antibody, human IgG1, V domains shown)
VH: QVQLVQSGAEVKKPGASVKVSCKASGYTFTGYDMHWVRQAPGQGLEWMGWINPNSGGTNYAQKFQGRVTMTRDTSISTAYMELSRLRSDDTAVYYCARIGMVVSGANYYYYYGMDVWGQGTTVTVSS
VL: AIQMTQSPSSLSAYVGDRVIITCRASQGIRNDLGWYQQKPGKAPKLLIYAASSLQSGVPSRFSGSRSGTVFTLTISSLQPEDFATYYCLQDYNYPWTFGQGTKVEIK
B10: H1H7814N (antibody, human IgG1, V domains shown)
VH: QVQLVESGGGVVQPGRSLRLSCVASGFTISSYGMNWVRQAPGKGLEWVAVISYDGGNKYSVDSVKGRFTISRDNSKNTLYLQMNSLRAEDSAVYYCARGRYFDLWGRGTLVTVSS
VL: DIQMTQSPSTLSASVGDRVTITCRASQSISSWLAWYQQKPGRAPNLLISKASSLKSGVPSRFSGSGSGTEFTLTVSSLQPDDFATYYCQQYYSYSYTFGQGTKLEIK
B11: H1H7811N (antibody, human IgG1, V domains shown)
VH: QVQLVESGGGVVQPGRSLRLSCAVSGFTSSTYGMNWVRQAPGKGLEWVAVISFDGSNKYYADSVKGRFTISRDNSKNTLYLQMSSLRPEDTAVYYCARGRYFDLWGRGTLVTVSS
VL: B10 VL with I2T, S28I, R42K, N45K, S49Y, K55A, V75I, Y92K, K103N
B12: H1H11243N (antibody, human IgG1, V domains shown)
VH: B5 VH with A17T, H81Q, M89V, R103G, E111D, V112I, D119G
VL: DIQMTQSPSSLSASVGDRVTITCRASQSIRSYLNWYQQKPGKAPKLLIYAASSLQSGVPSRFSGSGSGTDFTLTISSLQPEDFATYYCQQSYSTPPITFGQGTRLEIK
B13: H1H11894P2 (antibody, human IgG1, V domains shown)
VH: QVQLVQSGAEVKKPGSSVKVSCRASGGTFSRFAIGWVRQAPGQGLEWMGGIIPIFGTASYAQKFQGRVTITTDESTSTAYMELRSLRSEDTAVYYCTREGITGRGYYYYGMDVWGQGTTVTVSS
VL: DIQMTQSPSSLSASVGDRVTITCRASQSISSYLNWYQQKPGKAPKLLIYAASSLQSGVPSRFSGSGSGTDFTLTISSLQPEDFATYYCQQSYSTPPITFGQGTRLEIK
B14: H1H11892P2 (antibody, human IgG1, V domains shown)
VH: EVQLVESGGGLVQPGGSLRLSCATSGFTFSNYDFHWVRQIRGQGLEWVSTIDTAGDTYFSGSVKGRFTISRDTAKTSLYLQMNSLRAGDTAVYYCARAPRYDSTGNYYNYYSYFGLDVWGQGTTVTVSS
VL: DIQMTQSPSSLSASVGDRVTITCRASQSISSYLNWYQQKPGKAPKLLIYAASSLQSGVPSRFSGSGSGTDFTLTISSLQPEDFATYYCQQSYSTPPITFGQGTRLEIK
B15: H1H7810N (antibody, human IgG1, V domains shown)
VH: B11 VH with F53Y, S84N
VL: B10 VL with S28I, R42K, N45K, S49Y, K55A, V75I, Y92K

The target in one test is T1, human six-transmembrane epithelial antigen of prostate 2 (STEAP2) (human, UniProt Q8NFT2 1-490).
T1 construct: also called hSTEAP2
T1 sequence: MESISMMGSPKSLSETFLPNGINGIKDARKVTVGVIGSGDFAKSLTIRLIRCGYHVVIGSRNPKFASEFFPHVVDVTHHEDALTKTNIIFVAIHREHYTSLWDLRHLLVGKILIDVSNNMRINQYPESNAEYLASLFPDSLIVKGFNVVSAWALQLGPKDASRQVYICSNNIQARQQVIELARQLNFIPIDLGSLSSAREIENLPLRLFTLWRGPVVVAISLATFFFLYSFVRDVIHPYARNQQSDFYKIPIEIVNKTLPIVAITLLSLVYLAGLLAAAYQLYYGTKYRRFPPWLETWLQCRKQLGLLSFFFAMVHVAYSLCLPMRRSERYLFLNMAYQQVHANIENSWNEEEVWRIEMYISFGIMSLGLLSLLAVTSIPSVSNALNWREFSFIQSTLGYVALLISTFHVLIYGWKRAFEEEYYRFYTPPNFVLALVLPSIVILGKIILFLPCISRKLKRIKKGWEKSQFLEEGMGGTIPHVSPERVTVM
Nature of the test: FACS titration on C4-2 cells (endogenous STEAP2), 4-parameter fit.
Protocol: (§1) Briefly, 1×10⁵ cells were incubated with 10 μg/ml of anti STEAP2 antibodies, or isotype control antibodies for 30 min on ice in antibody dilution buffer. Following one wash with antibody dilution buffer, cells were incubated with 10 μg/ml of PE conjugated anti-human or antimouse Fc secondary antibodies for 30 min on ice. Following one additional wash, samples were incubated with Cytofix (1% formaldehyde) for 20 minutes. After one final wash, samples were filtered through a Pall 96 well filtration block, run on a Hypercyt® cytometer and analyzed in ForeCyt™ (IntelliCyt, Albuquerque, N. Mex.). Mean fluorescence intensities (MFI) were expressed as fold change above unstained levels (background). The average fold above background at antibody concentrations of 100-300 nM were determined.
In the case of B1, the EC50 (commonly the concentration giving half of the maximal effect) worked out at 5 nM. In other words, the single-digit nanomolar range.

Turning to B2, the EC50 came to 1 nM. Against the preceding molecule, the EC50 is about 5-fold lower.

Molecule B3 returned an EC50 of 2 nM. Compared with the last molecule, the EC50 is about 2-fold higher.

B4 showed an EC50 of 21 nM.

In turn, B5 gave an EC50 of 3 nM.

Regarding B6, the EC50 is 3 nM.

Molecule B7 yielded an EC50 greater than 50 nM.

B8: a half-maximal effect (EC50) was put at 9 nM.

B9: the EC50 was greater than 50 nM.

B10 yielded a half-maximal effective concentration (EC50) of 4 nM. That is a single-digit nanomolar value.

B11: the EC50 was greater than 50 nM.

Another test deals with T1, human six-transmembrane epithelial …. The test is described as follows: FACS on C4-2 cells (endogenous STEAP2), MFI fold above unstained, average at 100-300 nM antibody.
Protocol: as §1
On to B1, for which the “Avg F.A.B (fold above background)” value came out at 6 fold above background.

On to B2, for which the “Avg F.A.B (fold above background)” value worked out at 104 fold above background.

As for B3, the “Avg F.A.B (fold above background)” value came out at 117 fold above background.

B4: the “Avg F.A.B (fold above background)” value amounted to 9 fold above background.

Take B5: the “Avg F.A.B (fold above background)” value was found to be 90 fold above background.

Consider B12, for which the “Avg F.A.B (fold above background)” value came to 41 fold above background.

In the case of B6, the “Avg F.A.B (fold above background)” value is 6 fold above background.

Take B13: the “Avg F.A.B (fold above background)” value amounted to 7 fold above background.

For the molecule B14, the “Avg F.A.B (fold above background)” value worked out at 4 fold above background.

As for B7, the “Avg F.A.B (fold above background)” value is 89 fold above background.

As for B8, the “Avg F.A.B (fold above background)” value is 119 fold above background.

With B9, the “Avg F.A.B (fold above background)” value is 27 fold above background.

For the molecule B10, the “Avg F.A.B (fold above background)” value amounted to 96 fold above background.

B15: the “Avg F.A.B (fold above background)” value was found to be 26 fold above background.

With B11, the “Avg F.A.B (fold above background)” value worked out at 65 fold above background.

Another test shares this target. Nature of the test: FACS on HEK293 cells (low STEAP2), MFI fold above unstained, average at 100-300 nM antibody.
Protocol: as §1
For B1, the “Avg F.A.B (fold above background)” value is 7 fold above background.

Turning to B2, the “Avg F.A.B (fold above background)” value amounted to 10 fold above background.

Consider B3, for which the “Avg F.A.B (fold above background)” value was 10 fold above background.

Regarding B4, the “Avg F.A.B (fold above background)” value is 3 fold above background.

With B5, the “Avg F.A.B (fold above background)” value was 6 fold above background.

In the case of B12, the “Avg F.A.B (fold above background)” value is 3 fold above background.

Take B6: the “Avg F.A.B (fold above background)” value was found to be 9 fold above background.

For B13, the “Avg F.A.B (fold above background)” value came to 4 fold above background.

Consider B14, for which the “Avg F.A.B (fold above background)” value amounted to 3 fold above background.

For the molecule B7, the “Avg F.A.B (fold above background)” value worked out at 31 fold above background.

Regarding B8, the “Avg F.A.B (fold above background)” value is 4 fold above background.

For the molecule B9, the “Avg F.A.B (fold above background)” value turned out to be 5 fold above background.

Regarding B10, the “Avg F.A.B (fold above background)” value stood at 2 fold above background.

In the case of B15, the “Avg F.A.B (fold above background)” value came out at 3 fold above background.

For the molecule B11, the “Avg F.A.B (fold above background)” value was determined as 5 fold above background.
